Measured values reported in the DeepSol protein solubility set.

Assay: soluble on expression in E. coli; label from the status in PepcDB or PDB records

Question: Which “soluble on expression in E. coli” value does the source give for “MTRPIGIYEKATPKHFNWLERLQFAKELGFDFVELSIDESDERLARLEWSKEERLELVKAIFETGVRVPTITFSGHRRFPMGSNNPEKEARAMDMMKKCIVFAQDIGIRNIQLAGYDVYYEEKSPETRARFIKNLRQACTWAEEAQVILSIEIMDDPFMNSIEKYLAVEKEIDSPYLFVYPDTGNVSAWHNDLWSEFYNGHRSIAALHIKDTYAVTETSKGQFRDVPFGQGCVDWEEMFAVIKKTNYNGPFLIEMWSENCETVEETRAAIKEAQDFLYPLMEKTGVK” here?
Answer: not soluble

Question: For “MGSDKIHHHHHHMDEIVKVLSQHDRILVVGHIMPDGDCVSSVLSLTLGLEKLGKEVKAAVDYKIPYVFEKFPYIDKIEENPNFDPELLVVVDASSPDRIGKFQDLLDKVPSVVIDHHSTNTNFGNWNWVDPSFAATAQMIFRINKALGVEYDSNLATLNYLGIATDTGFFRHSNADVRVFEDAYKLVKMGADAHFVAKEILENKRFEQFKLFAEVLERLQLLENGKIAYSYIDYDTYLRHNCTDEDSAGFVGELRSIRGVEVAVLFMEFPRGKIHVSMRSKDWFNVNEVAFELGGGGHPRAAGVTFEGKKIEEVIPRVINHLLKKFKEGVESESEKIPEGDVLGG”, which “soluble on expression in E. coli” value is on record?
Answer: not soluble

Question: Which “soluble on expression in E. coli” value does the source give for “MFGNLGQAKKYLGQAAKMLIGIPDYDNYVEHMKTNHPDKPYMSYEEFFRERQNARYGGDGKGGMRCC” here?
Answer: soluble

Question: For “MMRISEKGITLIKEFEGCSLKAYPDPGTGGDPWTIGYGWTHSVDGKPVKPGMMIDEATAERLLKTGLVGYENDVSRLVKVKLTQGQFDALVSFAYNLGARTLSTSTLLRKLNAGDYAGAADEFLRWNKAGSKVLNGLTRRREAERALFLS”, which “soluble on expression in E. coli” value is on record?
Answer: not soluble

Question: With “MCTELEPHQRLKKIIDEIGVSQTKLACKYLGRATINKIIRGERPLNAAQAYKFIQRFKDFGYNADIELILGIPTKTIDSTVKKFLSNTKKHYLEFDKLIDKLYKDKAIEVIWNVIEKLDIQDVYKNANIILKYLTKLMQYDLDADIYLKVNIELIKIYTATANYERAITAFNSLKNFSILDRETKVKCFLNVALAYYNLREYKSSIDIASRVMKLKIFDKYYFKASIIKANVLYTDGRINESIKEYEKIAIKAEKYHFIEYVATSESNIGYVFTEQNKFNEAKLHLDEAMKLFDSLNNYYKLNVYDNVFGFKIKNNTADFDTFKKVILLAYDTNDKFRIKNNVKQFVNYAIRNKKSKEIFTKIIDFLNPKGIDLDSSLKLEIMEYVSGNTFESVLKLEHHHHHH” as the sequence, how does the “soluble on expression in E. coli” value read?
Answer: not soluble

Question: With “MTDFLEIRPLTKEAFTPFGDVIETTPSSMRHINGGQTERHHALSAPEAAGEGARIILNIFRGQPRVFPHKIDMMERHPLGSQSFSPLSGRPFLVVVAQDDGGRPARPQVFLARGDQGVNYRRNVWHYPLMPLQAVSDFLVADREGPGNNLEEYFFDEPFMIAEPSLAAALEHHHHHH” as the sequence, how does the “soluble on expression in E. coli” value read?
Answer: soluble

Question: With “MSEAKWLSLLGLAARARQLLTGEEQVVKAVQNGQVTLVILSSDAGIHTKKKLLDKCGSYQIPVKVVGNRQMLGRAIGKHERVVIGVKDAGFSRKLAALIDE” as the sequence, how does the “soluble on expression in E. coli” value read?
Answer: soluble

Question: For “MGVLTTFISQKALVGGYDNTIEPGVVILSGATITCNVSIGQGTFINKSTVISHDVRIGRYCEVSPGAKVLGRAIIGDRTEIGANAVILPDVIVGADCKIGAGAVVTRNIDSHTTVAGVPARSITKSSNNAFKLKSKIRNLLYHIRIADFRKLREYNHYVFGLEHHHHHH”, which “soluble on expression in E. coli” value is on record?
Answer: not soluble

Question: For “MSDTANAAVEIGEEALEQKLEELSVQDKTTPSNSEEKMRKRRLPTAERIRLWEEEQKSKTAITTGLQGKVKWYSVLRRYGFISRNDGEKDIFVHQTAIAKSATEKFYLRTLGDDEEVLFDLVEGKNGPEAANVTGPNGDNVIGSRYRHKLLSRFRKNRKPRASVDGEESQSTDAKPQEMSADAEKKKPRKQRKNRNRKSKAQQKGAGDAADSSAVTESSESASDVASPDSKSCSKIITEEAGLSKVDRCDSALGEAGLGAQPIDAQI”, which “soluble on expression in E. coli” value is on record?
Answer: soluble

Question: Which “soluble on expression in E. coli” value does the source give for “MKILLFICGEGLGHTGRCLALGKEFLAAGHEVNFGAYGYSKGLVQKTGYSAYEIPSEIKLAGEAGTFDIRKSIKETLNNLSPSGFRKILRLIEKLDPDVVLSDGYYTGILAAQKRKVPVYFIGHQFNMEEFFWKKGLFAGIAGIFVKRFYNYVFSSVDGIIVPDYPLPYSVNRKNFTISRAVNDNIFFSGPLIRCRYQEAGEKAFKRPNVLSTIGAFGYRAAVFRNVLEAAKLDPSIYYTFISGPEIDPEQFSKVPENVEFTGFTENPFPYYKGSDLVITAGGHGTIMESLAFGLPILSFPDEKHAEQENNASVLEEAGYGKRMSYLTPPEVILACIREIFEDENYSKKTRRLMELAEVLDGPAAVRKFLEEKHRGLEHHHHHH” here?
Answer: not soluble

Question: Which “soluble on expression in E. coli” value does the source give for “SRRRPLSCDAASQAGSNYPRCWNCGGPWGPGREDRFFCPQCRALQAPDPTRDYFSLMDCNRSFRVDTAKLQHRYQQLQRLVHPDFFSQRSQTEKDFSEKHSTLVNDAYKTLLAPLSRGLYLLKLHGIEIPERTDYEMDRQFLIEIMEINEKLAEAESEAAMKEIESIVKAKQKEFTDNVSSAFEQDDFEEAKEILTKMRYFSNIEEKIKLKKIPL” here?
Answer: soluble

Question: For “MTTSDSRSFMYRLLKFISRQPIQLSRLFARMLAGLVNTLKLTKTSRTIQLNLKITLPYLNDQQRERIIQNAIRNELTSYMEFFSIWGSSNQKNISRIHHVEGADFFHQAIAENKGIVLIVPHFGTWEIMNAWCAQYTDMTILYKPVKDKDADRFVREARSREQAKLVPTDESGVRQIFKALKQGGTTVILPDHTPNVGGEMVDYFGIPLASSNLSAKLIQKTKAKALFLYAIRNENHGFDMFIEPMDPAIYQGTDHDGTLVIHHAIEDLIRKYPDHYHWSYKRFKA”, which “soluble on expression in E. coli” value is on record?
Answer: not soluble

Question: With “MEKVQSISNGTNSISYTLTRSRRKTVGIRITENGEVKVAAPLNIPDRQLKDIILKKLPWILRKQEELRKICEESRLENKFADGETFLYLGKEYTLRIAKGVLPEGVNLEENYIVVAADETKVSVNGPQYIRNVLKNFYVNQFVDIAKTRMDFFSPKIGVCPRKLTVREQKTRWGSCSSKGNISLNWKLVMAPMEVIDYVIVHELCHMKEMNHSKNYWNIVKSIIPDFELRRKWLKDNGHRLLM” as the sequence, how does the “soluble on expression in E. coli” value read?
Answer: soluble

Question: For “MPRIVFDCLIDQPAARHLIERIDALTALLVRDNVVYSAHVDHQPQSPQPDSVREELTTTYLRDRGAETADELSDSVVALDELSLQRFTIVVDGLNGSLNETAMTYSRLLTPAARLSNDALDLTDEQRYEVPAAYPWTVFVSA”, which “soluble on expression in E. coli” value is on record?
Answer: not soluble

Question: Which “soluble on expression in E. coli” value does the source give for “MKAVKPMTDNISVLIMGVDESEIRDKNYGKATRTDALLLATINKNDKSVKLVSIPRDSRVYIKSRDKYDKITHAHVFGGVDSTIDTVENFLDVPVDYYVKFNFKSFIKIVDSLGGITVDVPVEFTEQNSKDEADAVHLKKGRQHLNGEEALALARTRHIDSDYMRGQRQQLVLEAIAQKALSLNSINKIGGLLDAVDKDLKTNLTFDDMMTIAKNSMDSNLKMDKMQVEGTDKYIGGIYYYVPNEKSVNTISTTLQEHLGVTNKNEHKKLLEHHHHHH” here?
Answer: soluble

Question: For “MTALESSYLNLAYPPRLDLGPQLTHDQLRSSMQSTMARHKGGPVWLFAYGSLIWRPECSAVERKRGRVHGYHRGLYLWSHEHRGTPELPGLVFGLDRGGSCSGFAYRLPEEQLDASLYALWQREMPYPSYRPHWLNCRLEDGSQVQALGFVLERHLPSYAGNLPDDVLNQVFESACGRYGTTRDYVEQTVQALRSHAMPDRNLEARLKRCKGADAHLEHHHHHH”, which “soluble on expression in E. coli” value is on record?
Answer: not soluble

Question: For “MDFDMIEEKKDSVIVRNVENFELKDIFDCGQCFRWHRQENGNYIGIAFEKVVEVQKIGEDVVIYNINEEEFKNVWSEYFDLYRDYGEIKKELSRDPLLKKSVDFGEGIRILRQDPFEILLSFIISANNRIPMIKKCINNISEKAGKKLEYKGKIYYAFPTVDKLHEFTEKDFEECTAGFRAKYLKDTVDRIYNGELNLEYIKSLNDNECHEELKKFMGVGPQVADCIMLFSMQKYSAFPVDTWVKKAMMSLYVAPDVSLKKIRDFGREKFGSLSGFAQQYLFYYARENNIQL”, which “soluble on expression in E. coli” value is on record?
Answer: soluble

Question: Which “soluble on expression in E. coli” value does the source give for “AEPDQAPELNEAQREAVDTIGALSAFQPVLLHGVTGSGKTEVYLHAAARVLQAGRQVLLMVPEINLTPQLEGALRARLEALVGPQGVAILHSGLADGERVQAWARAQRGQARLLLGTRMSIFAPLPELGLIVVDEEHDPSYKQQEGLRYSARDLAIWRARDLDIPVVLGSATP” here?
Answer: not soluble
